# Reference: IntAct's records for PubMed 26455799
# B1: ADP-ribosylation factor-like protein 2 (Mus musculus), Q9D0J4 (parent)
# chain: MGLLTILKKMKQKERELRLLMLGLDNAGKTTILKKFNGEDVDTISPTLGFNIKTLEHRGFKLNIWDVGGQKSLRSYWRNYFESTDGLIWVVDSADRQRMQDCQRELQSLLVEERLAGATLLIFANKQDLPGALSCNAIQEALELDSIRSHHWRIQGCSAVTGEDLLPGIDWLLDDISSRVFTAD
# B2: Cilia- and flagella-associated protein 36 (Mus musculus), Q8C6E0 (parent)
# chain: MAAEEEDEVEWVVESIAGFLRGPDWSIPILDFVEQKCEVFDDEEESKLTYTEIHQEYKELVEKLLESYLKEIGINEDQFQEACTSPLAKTRTSQAILQPVLAAEDFTIFKAMMVQKNIEMQLQAIRIIQERNGVLPDCLTDGADVVSDLEQEEMKILREVLRKSKEEYDQEEERKRKKQSSEAKMEELPVYTSEAEKMSNSQGDGEHFVQPPSEVKVHFANQSVQPLARKMELLPETSSLTQKGLKIPGLEHASMEGPIANLSALGTEELRQREHYLKQKRDKLLSMRKDTRTKQIQNTEQKGKPTREAEEMTEKPEMTAEEKQTLLKRRLLAEKLKEEVINK
# Variants of: B1
# Details: with cfa36_mouse Cfap36, Q8C6E0
row,Variant,effect of a mutation on the interaction
1,L4D,decreasing interaction strength
2,F50A,decreasing interaction strength

# Variants of: B2
# Details: with arl3_mouse Arl3, Q9WUL7
# Chain of arl3_mouse Arl3, Q9WUL7 (Q9WUL7 whole entry): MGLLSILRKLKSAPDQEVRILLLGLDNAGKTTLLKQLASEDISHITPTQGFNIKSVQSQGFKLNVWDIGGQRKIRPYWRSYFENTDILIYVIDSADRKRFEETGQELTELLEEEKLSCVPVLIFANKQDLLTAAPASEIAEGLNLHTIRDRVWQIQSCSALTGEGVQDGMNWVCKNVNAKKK
row,Variant,effect of a mutation on the interaction
1,L65D;C83R,decreasing interaction strength
2,E44R;E45R,decreasing interaction strength
3,L65D;C83R;V100H,decreasing interaction strength
4,E44R;L48R,decreasing interaction strength
